assay: yeast display, Sf9 membrane polyspecificity reagent, FACS + sequencing; frameworks hold sequencing errors
Summary of the method: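 Synthetic nanobody libraries on Saccharomyces cerevisiae BJ5465 were galactose-induced for 36–48 hours, stained 1 hour at 4 °C with 10% biotinylated, detergent-solubilized Sf9 membrane reagent and enriched on streptavidin microbeads. FACS then separated cells into low and high (top ~1%) gates by anti-HA (expression) and streptavidin (reagent binding) fluorescence. Genes were colony-PCR amplified, MiSeq 2 × 250 sequenced and CDR-length filtered. A clone's polyreactivity label is that of its gate of origin.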

| Sequence | polyreactivity (PSR sort gate) |
| --- | --- |
| QVHLVESGGGLVQAGGSLRLSCAASGFTFRYYAMGSYRQAPGKERELVASIRRIGGSTYYADSVKGRFTISRDNAKNTVYLQMNSLKPDDTAVYYCAASTNFYYNPEYDSWGQGTQVTVSS | low polyreactivity |
| QVHLVESGGGLVQAGGSLRLSCAASGFTFTRYAMGWYRQAPGKERELVAAISFSGGSTYYADSVKGRFTISRDNAKNTVYLQMNSLKPEDTAVYYCAGRWSVSYQYWGQGTQVTVSS | high polyreactivity |
| QVHLVESGGGLVQAGGSLRLSCAASGFTFYYYAMGWYRQAPGKERELVAAISDSGGITYYADSVKGRFTISRDNAKNTVYLQMNSLKPEDTAVYYCAADFATPGPEYDYWGQGTQVTVSS | low polyreactivity |
| QVHLVESGGGLVQAGGSLRLSCAASGFTLFGYAMGWYRQAPGKERELVAAISKDGGSTYYADSVKGRFTISRDNAKNTVYLQMNSLKPEDTAVYYCAARVKRPQTGYDRRYGYWGQGTQVTVSS | high polyreactivity |
| QVHLVESGGGLVQAGGSLRLSCAASGIIFGHYDMGWYRQAPGKERELVAAITFTGDSTYADSVKGRFTISRDNAMNTVYLQMNSLKPEDTAVYYCNASVKPSNVWSRGYDYWGQGTQVTVSS | low polyreactivity |
| QVHLVESGGGLVQAGGSLRLSCAASGIIFGVYAMGWYRQATGKESELVAAIDGNGSSTYYADSVKGRFTISRDNAKNTVFLQMNSLKPEDTAVYYCAAGYWSYLYYWYDFDYWGQGTQVTVSS | low polyreactivity |
| QVHLVESGGGLVQAGGSLRLSCAASGIIFRHKAMLWYRQAPGKERELVAAISSGGNTYYADSVKGRFTISRDNAKNTVYLLMNSLKPEDTAVYYFADDVQDRYHRAWYDSWGQGRQVTVSS | low polyreactivity |
| QVHLVESGGGLVQAGGSLRLSCAASGIIFYFYTMGWYRQAPGKERELVAAISSSGGRTFYADSVKGRFTISRDNAKNTDYLQMNSLKPEDTAVYYCAAAHTREYYWGQGTQVTVSS | high polyreactivity |
| QVHLVESGGGLVQAGGSLRLSCAASGIIFYLYAMGRYRQAPGKERELVAGITSGGDTKYADSVKGRFTISRDNAKNTVYLQMNSLKPEDTAVYYCATDSGSVWQRWGYANYDYWGQGTQVTVSS | low polyreactivity |
| QVHLVESGGGLVQAGGSLRLSCAASGIIFYRYAMGWYRQAPGKERELVAAISWRGTSTYYADSVKARFTISRDNANNTVYLQMNSLKPEDTEVYYCNAGVRRKYGEYYYWGQGTQVTVSS | high polyreactivity |
| QVHLVESGGGLVQAGGSLRLSCAASGITFGRNTMGWSRQAPGKERELVDAIDSCGNTYADSVKGRFTISRDNAKNTVYLKMNIVNPEDTAVYYCAVDGGEFSSYGEWGQGTQVTVAS | low polyreactivity |
| QVHLVESGGGLVQAGGSLRLSCAASGITFYYYAMGWYRQAPGKERELVAAIDTDGSTYYADSVKGRFTVSRDNAKNTVYLQMNILKPEDTAVYYCAAVIEYYPYSGYIYDYWGQGSQVTVSS | high polyreactivity |
| QVHLVESGGGLVQAGGSLRLSCAASGLIFLAYAMGWYRQAPGKERELVAAISTSGSTYYADSVKGRFTISRDNAKNTVYLQMNSLKPEDTAVYYCAAYDRWSVTYYYWGQGTQVTVSS | high polyreactivity |
| QVHLVESGGGLVQAGGSLRLSCAASGLIFYFYAKGWYRQAPGKERELVAGITNGGSTNYADSVKGRFTISRDNAKNTVYLQMNSLKPEDTAVYYCAAQYYTVRSTYDYWGQGTQVTVSS | high polyreactivity |
| QVHLVESGGGLVQAGGSLRLSCAASGLTFAWSAMGWYRPAPGKEREWVAAITSSGSRTYYADSVKGRFTISRDNAKNTVYLQMNSLKPEDTAVYYCAAPSRYRPTKGYPYYYWGQGTQVTVSS | high polyreactivity |
| QVHLVESGGGLVQAGGSLRLSCAASGLTFLYNTMGWYRQAPGKEREFVAAITISGGTTYYADSVKGRFTISRDNAKNTVYLQMNSLKREDTAVYYCAADYNSTERGTNMDYWGQGTQVTVSS | low polyreactivity |
| QVHLVESGGGLVQAGGSLRLSCAASGNIFGLYAMGWYRQAPGKERELVAAIRWIGGRTYYADSVKGRFTISRDNAKNTVYLQMNSLKPEDTAVYYCNAEYIVYYRGYDYWGHGTQVTVSS | high polyreactivity |
| QVHLVESGGGLVQAGGSLRLSCAASGNTFYKYTMGWYRQAPGKERELVAVISSSSGSTYYADSVKGRFTISRDNAMNTVYLQMNSLKPEDTAVDYCNKRGWWDLRHDYWGQGTQVTVSS | low polyreactivity |
| QVHLVESGGGLVQAGGSLRLSCAASGRIFGDNAMGWYRQAPGKERELVAAITVNAGSTHYADSVKGRFTISRDNAKNTDYLQMNSLKPEDTAVYYCAKQTAPVTGVGPYYYWGQGTQVTVSS | low polyreactivity |
| QVHLVESGGGLVQAGGSLRLSCAASGRIFGYNAMGWYRQAPGKERELVAAITGSRGSTYYADSVKGRFTFSRDTAKNTVYLQLNSLKPEDTAVYYCNAPGNHWGDWGHGTQVTVSS | low polyreactivity |
| QVHLVESGGGLVQAGGSLRLSCAASGRIFGYYAMGWYRQAPGKVRELVAAIRRSGGSTYADSVKGRFTISRDNAKNTVYLQMNSLKPEDTAVYDCAAGHYWTSPYRVLSYSYWGQGTQVTVSS | high polyreactivity |
| QVHLVESGGGLVQAGGSLRLSCAASGRIFSLNAMGCDRQAPGKERELVAAISTGGASTYYADSVKGRFTISRDNAKNTVYLQMNSLKPEDTAVYSCAADLGYEYDYWGQGTQVTVSS | high polyreactivity |

| Sequence | polyreactivity (PSR sort gate) |
| --- | --- |
| QVHLVESGGGLVQAGGSLRLSCAASGRIFSRNAMGWYRQAPGKERELVASITRGGSTYYADSVKGRFTISRDNAKITVYLQMNSLKPEDTAVYYCAAVFYDRGQRYNYWGQGTQVTVSS | high polyreactivity |
| QVHLVESGGGLVQAGGSLRLSCAASGRIFTYYAMGWYRQAPGKERELFAGISRSGTSSYYADSVKGSFTISRDNAKNTVYLQMNSLKPEDTAVYYCAADVFRDDVWLDYWGQGTQVTVSS | low polyreactivity |
| QVHLVESGGGLVQAGGSLRLSCAASGRIFYANARGWYRQAPGKERELVAAISQSGGSTFYADSVKGRFTISRDYAKNTVYLQMNSLKPEDTAVYYCATDYYGPVYDLDYDYWGQGTQVTVSS | low polyreactivity |
| QVHLVESGGGLVQAGGSLRLSCAASGRIFYANDMGWYRQAPGKERELVAAITNTVSTTYADSVKGRFTISRDNAKNTVYLQMNSLKTEDTAVYYCNADDPYVPKADMGYWGQGTQVTVSS | low polyreactivity |
| QVHLVESGGGLVQAGGSLRLSCAASGRIFYAYAMGWYRPAPVKERELVAAITWSGGSTYYADSVKGRFTISRDNAKNTVYLQMNSLKPEDTAVYYCAADLRVKYVHTYSYVWYRYDYWGQGTQVTVSS | high polyreactivity |
| QVHLVESGGGLVQAGGSLRLSCAASGRIIGKYAMGWYRQPPGKERELVAAITWSGGNTYYADSVKGRFTISRDNAKNTVYLQMNSLKPEDTAVYYCAASVPGKSHKDGYWGQGSQVTVSS | high polyreactivity |
| QVHLVESGGGLVQAGGSLRLSCAASGRIINYYDMGWYRQAPGKERELVAAISRSGGRTYYADSVKGRFTISRDNAKNTVYLQMNSLKPEDNAVYYCAASDYQRYQPTPQYTYYYWGQGTQVTVSS | high polyreactivity |
| QVHLVESGGGLVQAGGSLRLSCAASGRILGDYAMGWYRQAPGKEREFVAAIDYNGGSTNYADSVKGRFTISRDNAKNTVYLQMNSLKPEDTAVYYCAAPGFPSRNGFGYWGQGTQVTVSS | low polyreactivity |
| QVHLVESGGGLVQAGGSLRLSCAASGRILSLYAMGWYRQAPGKERELVASINWSDGSTYYADSVKGRFTISRDNAKNTVYLQMNSLKPEDTAVYYCNVDVSSYVAGYDYWGQGTQVTVSS | low polyreactivity |
| QVHLVESGGGLVQAGGSLRLSCAASGRNFGYYARGWYRQAPVKERELVAAIDSSGGDTYYADSVKGRFTISRDNAKNSVYVQMNSLKPEDTAVFYCAAEYVAQAGYGVDYWGQGTEVTVSS | low polyreactivity |
| QVHLVESGGGLVQAGGSLRLSCAASGRTFDLNAMGWYRQAPGKERELVAGISSSGGRTYYADSVKGRFTISRDNAKNTVYLQMNSLIPEDTAVYYCAKVYPSYVLRKYDYWGQGTQVTVSS | high polyreactivity |
| QVHLVESGGGLVQAGGSLRLSCAASGRTFFQYAMGWYTQAPGKERELVAAIRWSDSTYYADSVKGRFTISRDNAKNTVYLQMNSLKPEDTAVYYCAKTYRYYRTMDYWGQGTQVTVSS | low polyreactivity |
| QVHLVESGGGLVQAGGSLRLSCAASGRTFGWNVMGWYRPAPGKERELVAAISGSGGSTYYADSVKGRFTISRDNAKNPVYLQMNSLKPEDTAVYYCAALYGPGREYDYWGQVTQVTVSS | low polyreactivity |
| QVHLVESGGGLVQAGGSLRLSCAASGRTFIFYAMRWYRQAPGKERELVATISRSAGSTYYADSVKGRFTISRDNAKNTVYLQMNSLKPEDTAVYYCATQSRHYRGGKYYYWGQGTQVSVSS | high polyreactivity |
| QVHLVESGGGLVQAGGSLRLSCAASGRTFIGNAMGWYRQATGKERELVAGITWSGGRSYYADSVKGRFTISRDNAKNTVYLQMNSQKPEDTAVYYCGRAGQSSRMNYWGQGTQVTVSS | high polyreactivity |
| QVHLVESGGGLVQAGGSLRLSCAASGRTFSAYAMGWYRQAPGKEREDVAAISRSGGSTYYADSVKGRFPISRDNAKNTVYLQMNILTPEDTAVSDCAVRWPSARIPVKLEDWGQGTQVTVSS | high polyreactivity |
| QVHLVESGGGLVQAGGSLRLSCAASGRTFVQYAMGWSRQAPGTERELVAVISNGGTTYYADSVKGRFTISRDNAKNTVYLQMNSLKPEDTAVYYCAAKIITRRGGRYDYWGQGTQVTVSS | high polyreactivity |
| QVHLVESGGGLVQAGGSLRLSCAASGRTFWNYAMGWYRQAPGKEREFVAVIRFSDGSTYYADSVKGRFTISRDNAKNTVYLQMNSLKPDDTAVYYCAAKGPRRWGSGFDYWGQGNQVTVSS | low polyreactivity |
| QVHLVESGGGLVQAGGSLRLSCAASGRTFYANAMGWYIQAPGKERELVAAISTGGDGTYYADSVKGRFTISRDNAKNTVYLQMNSLKPEDTAVYYCAVRHRASGILYDYWGQGTQVTVSS | low polyreactivity |
| QVHLVESGGGLVQAGGSLRLSCAASGRTFYDYAMGWYRQAPGKERELVAAITYSGGSTFYADSVKGRFTISRDNAKNTFYLQMNSLKPEDTAVYYCAAEVLRLVGAAEYDYWGQGTQVTVSS | low polyreactivity |
| QVHLVESGGGLVQAGGSLRLSCAASGRTFYRNAMGWYRQAPGKERELVAAIRTRTGSTYYADSVKGRFTISRDNAKNTVYLQMNSLKPEDTAGYYCAALAWYPYYASWPVESDYWGQGTQVTVSS | high polyreactivity |
